Measured values reported in paper PMC2924587 (2010).

Biological target: Protein phosphatase 1 alpha 7-330 (Homo sapiens, UniProt P62136)
Assay: ITC

Protein phosphatase 1 alpha 7-330, sequence (P62136 7-330): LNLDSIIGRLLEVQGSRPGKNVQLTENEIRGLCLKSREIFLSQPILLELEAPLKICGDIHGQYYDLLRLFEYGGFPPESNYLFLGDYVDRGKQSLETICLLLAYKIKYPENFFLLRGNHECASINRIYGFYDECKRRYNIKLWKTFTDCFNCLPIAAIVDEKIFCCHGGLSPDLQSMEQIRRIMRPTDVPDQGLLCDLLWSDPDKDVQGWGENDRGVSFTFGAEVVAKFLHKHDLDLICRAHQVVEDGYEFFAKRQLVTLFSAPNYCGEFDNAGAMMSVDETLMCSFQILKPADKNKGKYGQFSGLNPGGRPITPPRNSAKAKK

Kd: 8.7 nM
B1: Spinophilin 417-583 (protein)
chain: not shown
